According to PMC10030575, “The IgV domain of the poliovirus receptor alone is immunosuppressive and binds to its receptors with comparable affinity” (Scientific Reports, 2023):
Read-outs that look alike come from different tables or passages of the source.

T1: recombinant mouse CD96-his (mouse, UniProt Q3U0X8 22-536)
T1 construct: mouse CD96 (TACTILE), recombinant; also called mCD96-his; mCD96; source: bought: Biolegend (788806)
T1 sequence (looked up): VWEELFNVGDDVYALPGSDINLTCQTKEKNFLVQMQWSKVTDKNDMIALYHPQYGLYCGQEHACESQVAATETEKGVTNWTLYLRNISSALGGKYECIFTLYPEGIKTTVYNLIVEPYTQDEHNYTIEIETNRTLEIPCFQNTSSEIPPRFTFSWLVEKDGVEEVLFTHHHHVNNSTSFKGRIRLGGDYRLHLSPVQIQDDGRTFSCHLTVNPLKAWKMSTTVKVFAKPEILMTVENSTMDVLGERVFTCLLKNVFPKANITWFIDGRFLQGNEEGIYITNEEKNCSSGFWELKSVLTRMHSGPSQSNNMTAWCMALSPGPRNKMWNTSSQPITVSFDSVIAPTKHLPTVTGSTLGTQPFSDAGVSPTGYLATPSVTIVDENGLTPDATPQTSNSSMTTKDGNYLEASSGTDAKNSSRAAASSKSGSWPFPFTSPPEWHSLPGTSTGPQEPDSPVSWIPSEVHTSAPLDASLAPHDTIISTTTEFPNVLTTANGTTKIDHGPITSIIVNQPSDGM

T2: recombinant mouse CD226-his (mouse, UniProt Q8K4F0 19-254)
T2 construct: mouse CD226 (DNAM1), recombinant; also called mCD226-his; mCD226; source: bought: SinoBiological (50232-M08H)
T2 sequence (looked up): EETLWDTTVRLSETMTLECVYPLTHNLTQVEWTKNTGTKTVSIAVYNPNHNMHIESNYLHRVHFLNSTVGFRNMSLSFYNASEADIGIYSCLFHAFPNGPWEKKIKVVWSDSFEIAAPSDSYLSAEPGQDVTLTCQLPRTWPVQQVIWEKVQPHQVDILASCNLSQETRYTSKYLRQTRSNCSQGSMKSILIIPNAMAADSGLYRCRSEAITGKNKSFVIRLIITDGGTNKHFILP

T3: recombinant mouse TIGIT-Fc-his (mouse, UniProt P86176 29-148)
T3 construct: mouse TIGIT (T-cell immunoglobulin and ITIM domain), recombinant; also called mTIGIT-Fc-his; mTIGIT; source: bought: Biolegend (771808)
T3 sequence (looked up): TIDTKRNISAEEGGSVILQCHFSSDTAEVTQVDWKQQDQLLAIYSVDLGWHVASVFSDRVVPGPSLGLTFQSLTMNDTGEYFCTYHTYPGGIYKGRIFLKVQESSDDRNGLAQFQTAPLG


Columns and labels:
Assay in all cases: SPR; Biacore T200; His-tagged receptors captured on an anti-histidine antibody CM5 chip (1-5 ug/mL, 30 uL/min); five concentrations (1:2 serial dilutions) of the PVR-Fc constructs flowed over, single-cycle kinetics; HBS-EP (20 mM HEPES pH 7.4, 150 mM NaCl, 0.005% Tween-20, 3.4 mM EDTA); 1:1 Langmuir model
[1] = molecular target: T1, recombinant mouse CD96-his
[2] = molecular target: T2, recombinant mouse CD226-his
[3] = molecular target: T3, recombinant mouse TIGIT-Fc-his

Row | Molecule | Kd [1] [nM] | koff [1] [s⁻¹] | kon [1] [M⁻¹ s⁻¹] | Kd [2] [nM] | koff [2] [s⁻¹] | kon [2] [M⁻¹ s⁻¹] | Kd [3] [nM] | kon [3] [M⁻¹ s⁻¹] | Kd ([1]; both partners purified) [nM] | koff ([1]; both partners purified) [s⁻¹] | kon ([1]; both partners purified) [M⁻¹ s⁻¹] | Kd ([2]; both partners purified) [nM] | koff ([2]; both partners purified) [s⁻¹] | kon ([2]; both partners purified) [M⁻¹ s⁻¹] | Kd ([3]; both partners purified) [nM] | koff ([3]; both partners purified) [s⁻¹] | kon ([3]; both partners purified) [M⁻¹ s⁻¹]
1 | full length PVR-Fc (full-length mouse PVR ECD-Fc) (Fc fusion) | 4.07 | 0.00455 | 1.17e+06 | 0.83 | 0.00651 | 3.2e+06 | 2.26 | 2.25e+07 |  |  |  |  |  |  |  |  | 
2 | vdPVR-Fc (IgV-domain PVR-Fc) (Fc fusion, mouse, UniProt Q8K094 29-147, looked up, murine PVR (poliovirus receptor, CD155), IgV domain of the extracellular domain, residues 29-147 of NP_081790.1; An Ig-kappa leader at the 5' end drives secretion; Migrates as a dimer (~94 kDa) without reducing agent; also called minimal murine PVR-Fc fusion construct; source: Expi293F cells, secreted, purified (protein A); not shown: Fc (human IgG1; P01857 residues 100-330; joined by linker …)) DIRVLVPYNSTGVLGGSTTLHCSLTSNENVTITQITWMKKDSGGSHALVAVFHPKKGPNIKEPERVKFLAAQQDLRNASLAISNLSVEDEGIYECQIATFPRGSRSTNAWLKVQARPKN |  |  |  |  |  |  |  |  | 1.72 | 0.00286 | 3.52e+06 | 0.69 | 0.00184 | 2.67e+06 | 2.25 | 0.0656 | 2.92e+07
